Here are results for 15 molecules from patent US20250263466A1 (VIR BIOTECHNOLOGY, published 2025).

Experiment [1] concerns the target T1, MERS-CoV S protein (London1/2012) expressed on ExpiCHO cells (MERS-CoV, UniProt K9N5Q8 18-1353).
T1 sequence: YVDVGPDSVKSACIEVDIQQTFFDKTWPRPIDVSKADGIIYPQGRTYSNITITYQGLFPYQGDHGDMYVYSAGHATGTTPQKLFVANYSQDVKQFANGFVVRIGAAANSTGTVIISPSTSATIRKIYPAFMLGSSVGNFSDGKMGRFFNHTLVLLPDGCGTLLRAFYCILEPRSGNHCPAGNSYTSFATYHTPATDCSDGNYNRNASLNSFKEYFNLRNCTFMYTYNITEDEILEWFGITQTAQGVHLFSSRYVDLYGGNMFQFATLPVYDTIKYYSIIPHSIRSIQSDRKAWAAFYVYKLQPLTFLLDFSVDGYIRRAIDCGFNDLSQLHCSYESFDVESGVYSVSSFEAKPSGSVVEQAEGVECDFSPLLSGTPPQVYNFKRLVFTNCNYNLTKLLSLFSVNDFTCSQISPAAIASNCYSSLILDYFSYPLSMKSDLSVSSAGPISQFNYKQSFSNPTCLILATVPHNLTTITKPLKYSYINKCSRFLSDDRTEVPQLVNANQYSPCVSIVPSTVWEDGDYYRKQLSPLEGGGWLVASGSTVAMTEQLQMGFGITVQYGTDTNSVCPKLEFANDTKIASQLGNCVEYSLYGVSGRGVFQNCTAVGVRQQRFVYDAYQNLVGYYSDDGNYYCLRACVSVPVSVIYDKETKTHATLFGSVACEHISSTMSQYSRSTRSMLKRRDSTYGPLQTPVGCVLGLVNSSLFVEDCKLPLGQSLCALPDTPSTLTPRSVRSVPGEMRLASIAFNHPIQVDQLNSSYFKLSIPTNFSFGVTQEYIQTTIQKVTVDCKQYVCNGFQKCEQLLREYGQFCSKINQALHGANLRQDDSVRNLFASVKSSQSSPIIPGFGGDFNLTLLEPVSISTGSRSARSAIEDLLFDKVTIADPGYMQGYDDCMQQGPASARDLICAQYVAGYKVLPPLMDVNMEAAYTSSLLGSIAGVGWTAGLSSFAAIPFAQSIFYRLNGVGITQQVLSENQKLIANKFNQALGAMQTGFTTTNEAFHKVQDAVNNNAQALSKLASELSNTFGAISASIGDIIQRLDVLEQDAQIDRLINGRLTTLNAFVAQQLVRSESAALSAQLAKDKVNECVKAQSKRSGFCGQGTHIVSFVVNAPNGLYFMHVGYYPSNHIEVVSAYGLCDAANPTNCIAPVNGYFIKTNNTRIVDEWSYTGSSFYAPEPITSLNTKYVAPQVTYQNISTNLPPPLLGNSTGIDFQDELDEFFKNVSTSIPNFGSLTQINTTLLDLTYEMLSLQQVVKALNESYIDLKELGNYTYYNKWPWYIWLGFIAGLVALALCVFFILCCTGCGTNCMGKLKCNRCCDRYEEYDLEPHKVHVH
Kind of experiment: flow cytometry on ExpiCHO cells transfected with MERS-CoV S. In general terms: A flow cytometer gives signals particle by particle.

The target of experiment [2] is SARS-CoV S protein (Urbani strain) expressed on ExpiCHO cells (SARS-CoV, UniProt P59594 14-1255). Nature of the experiment: flow cytometry on ExpiCHO cells transfected with SARS-CoV S.

B1: nCoV-13 mAb (antibody, V domains shown)
VH: EVQLVESGGGLVKPGGSLRLSCAASGFTFSNYNMNWVRQAPGKGLEWVSSIGSSSTYIYSADSVKGRFTISRDNAMNSLFLQMKSLRAEDTAVYYCARGFERYYFDSWGQGTLVTVSS
VL: QSVLTQPPSASGTPGQRVTISCSGSTSNIGTNVVNWYQQLPGTAPKLLIYSNNQRPSWVPDRFSGSKSGTSASLAISGLQSEDEADYYCVAWDDILNAVVFAGGTKLTVL
Consider B1, for which the binding result in experiment [1] is given as “no binding (tested: 7 µg/ml)”; in experiment [2], “binds”.

B2: nCoV-11 mAb (antibody, V domains shown)
VH: LVQLVESGGGVVQPGRSLRLSCAGSGFTFSSYGMHWVRQTPGKGLEWVAVISFDGRNKFYADPVKGRFTISRDNSKNTVFLELDSLTTEDTAFYYCARDDNLDRHWPLRLGGYWGQGTLVTVSS
VL: EIVMTQSPLSLPVTLGQPASISCRSSQDLLYNDGGTDLNWFQQRPGQSPRRLIYRVSNRDSGVPDRFSGSGSGSDFTLKISRVEAEDVGIYYCMQGAHWPPTFGPGTKVEIK
With B2, the binding result in experiment [1] is reported as “no binding (tested: 10 µg/ml)”; in experiment [2] it was “binds”.

B3: nCoV-5 mAb (antibody, V domains shown)
VH: QMQLVQSGPEMKKPGTSVKVSCKASGFTFSKTTLQWVRQARGQRPEWIGWIVLGSGNTNYAHYFQARVTITRDMSTSTAYMELSSLSSEDTAVYYCAAEMATIQNYYYYYGMDVWGQGTTVTVSS
VL: DIQMTQSPSSLSASVGDRVTITCRASQSINYYLNWYQQKPGKAPNLLIYAASSLPGGVPSRFSGSGSGTDFTLTITSLQPEDFATYFCQQSYSTPPTFGQGTKLEIK
With B3, the binding result in experiment [1] was “no binding (tested: 1 µg/ml)”; in experiment [2], “binds”.

B4: nCoV-6 mAb (antibody, V domains shown)
VH: QVTLKESGPVLVKPTETLTLTCTVSVFSLSNARMGVSWIRQPPGKALEWLAHIFSSDQKSYSTSLKSRLTISKDTSKSQVVLTMTNMDPEDTGTYYCARINTAAYDYDSTTFDIWGQGTMVTVSS
VL: DIQMTQSPSSLSASVGDRVTITCRASQTISNYLNWYQQKPGKAPKLLLYAASSLQSGVPSRFSGSGSGTDFTLTISSLQLEDFATYYCQQSYSTPPTFGGGTKVEIK
With B4, the binding result in experiment [1] is reported as “no binding (tested: 10 µg/ml)”; in experiment [2], “binds”.

B5: nCoV-8 mAb (antibody, V domains shown)
VH: EVLLVESGGGLVQPGRSLRLSCVVSGFTFDYYAMHWVRQAPGKGLEWVSGISWNSDNTDYADSVKGRFTISRDNAKNSLYLQMNSLKTEDTALYYCAKDISLVFWSVNPPRNGMDVWGQGTTVTVSS
VL: DIQMTQSPSSLSASVGDRVTITCRASQSIRSYLNWYQQKPGKAPNLLIYTASSLQSGVPSRFSGSGSGTDFTLTISSLQPEDFATYYCQQSYSSPLTFGGGTKVEIK
As to B5, the binding result in experiment [1] was “no binding (tested: 1.5 µg/ml)”; in experiment [2] it was “binds”.

B6: nCoV-9 mAb (antibody, V domains shown)
VH: QVLLVESGGGVVQPGMSLRLSCAASGFTFSSYAMHWVRQAPGKGLEWVAVISYDGSTKFYADSVRGRFPISRDNSKNTVYLQMNSLRPEDTAVYYCATVSVEGYTSGWYLGTLDFWGQGTPVTVSS
VL: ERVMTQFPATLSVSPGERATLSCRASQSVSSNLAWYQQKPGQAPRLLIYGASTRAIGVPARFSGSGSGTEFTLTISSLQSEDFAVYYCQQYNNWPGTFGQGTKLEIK
For the molecule B6, the binding result is on record as “no binding (tested: 8.5 µg/ml)” in experiment [1] and “binds” in experiment [2].

B7: nCoV-15 mAb (antibody, V domains shown)
VH: EVQLVESGGGLVTPGRSLRLSCTASGFTFGDYALSWFRQAPGKGLEWVAFIRSKAYGGTTEYAASVKGRFTISRDDSQIIVYLQMDSLKTEDTAVYYCSWIHRIVSWGQGTLVTVSS
VL: DIQMTQSPSSLSASEGDRVTITCQASQDISIYLNWFQQKPGKAPKLLIYEASNLKTGVPSRFSGSGSGTDFTFTISSLQPEDIATYYCQQYDNLPYTFGQGTKLEIK
For the molecule B7, the binding result is recorded as “no binding (tested: 0.8 µg/ml)” in experiment [1] and “binds” in experiment [2].

B8: nCoV-4 mAb (antibody, V domains shown)
VH: QVQLVESGGGVVQPGRSLRLSCEASGFTLRTSSLHWVRQAPGKGLEWVAVISNDGATKFYADAVKGRFTISRDNSNNKIYLQLNGLKPEDTAVYYCARETRHYSHGLNWFDPWGQGTLVNVSS
VL: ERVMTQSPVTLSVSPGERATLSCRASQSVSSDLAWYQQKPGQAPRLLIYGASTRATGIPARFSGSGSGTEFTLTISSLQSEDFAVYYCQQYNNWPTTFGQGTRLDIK
In the case of B8, the binding result in experiment [1] is “no binding (tested: 10 µg/ml)”.

B9: nCoV-16 mAb (antibody, V domains shown)
VH: QVQLVESGGGVVQPGRSLRLSCAASGFTFSSYGMHWVRQAPGKGLEWVAFISYDGSNIQYADSVQGRFTISRDNSKTTLYLQMNSLRVEDTAMYYCAKDLFGYCRSTSCESLDDWGQGALVTVSS
VL: DIQLTQSPSFLSASVGDRVTITCRASQGISSYLAWYQQKPGKAPKLLIYAASTLQSGVPSRFSGTGYGTEFTLTISSLQPEDFATYYCQQLNNYPLTFGGGTKVEIK
As for B9, the binding result in experiment [1] is given as “no binding (tested: 10 µg/ml)”; in experiment [2], “binds”.

B10: nCoV-7 mAb (antibody, V domains shown)
VH: QEQVVESGGGVVQPGKSLRLSCAASGFSLNDFAIHWVRQAPGKRLEWVAIISYDGRVKFYADSVKGRFTISRDSSVHLQMDSLRPEDTGLYYCARDSSWQSTGWPINWFDRWGRGTLVTVSS
VL: EIVLTQSPATLSLSPGQRATLSCRASQSVLSSLAWYQHKPGQAPRLLIYDASSRATGVPARFSGSGSETDFTLTISSLEPEDFAVYYCQQRSNWPPTFGQGTKVEIK
Consider B10, for which the binding result in experiment [1] was “no binding (tested: 2 µg/ml)”; in experiment [2], “binds”.

B11: nCoV-14 mAb (antibody, V domains shown)
VH: QVQLVHSGAEVKKPGASVRVSCKASGYTYTAYYIHWLRQAPGQGLEWMGWINADNGDTHSVQKFQGRVTMTRDTSINTAYLEVSRLKSDDTAVYYCARGDVPVGTGWVFDFWGQGTLVTVSS
VL: DIQMTQSPSSLSASVGDSVTISCRASQTINNFLNWYQQKPGKAPNLLIYGAYNLQSGVPSRFSGSGSGTDFTLTISSLQPEDVAIYYCQQSLSMVTFGQGTRLDIK
Regarding B11, the binding result is reported as “no binding (tested: 10 µg/ml)” in experiment [1] and “binds” in experiment [2].

B12: nCoV-3 mAb (antibody, V domains shown)
VH: EVQLLESGGGLVQPGGSLRLSCTASGFTFASYAMTWVRQAPGKGLEWVSTISGGGGDTYSADSVKGRFTISRDNSKSTLYLQMNSLRAADTALYYCARLESATQPLGYYFYGMDVWGQGTTVTVSS
VL: SYELTQPPSVSVSPGQTARITCSGDALPKQYAFWYQQRPGQAPVLVISKDSERPSGIPERFSGSSSGTTVTLTISGVQAEDEADYYCHSADISATSWVFGGGTKLTVV
As for B12, the binding result in experiment [1] was “no binding (tested: 10 µg/ml)”; in experiment [2] it was “binds”.

B13: nCoV-12 mAb (antibody, V domains shown)
VH: QVQLVESGGGVVQPGRSLRLSCAGSGFTFSSFGLHWVRQAPGKGLEWLALISDEGRIKYYANSVKGRFFISRDNSKNTLYLQMNSLRGEDTAVYYCARDVKGHIVVMTSLDYWGQGALVTVSS
VL: DVVMTQSPLSLPVTLGQPASISCRSSQSLVSSDGDTSLSWFQQRPGQSPRRLIYEVSNRDSGVPDRFSGSGSGTDFTLKISRVEAEDVGVYYCMQGTHWPPTFGQGTKVEIK
Regarding B13, the binding result in experiment [1] was “no binding (tested: 0.8 µg/ml)”; in experiment [2] it was “binds”.

B14: nCoV-17 mAb (antibody, V domains shown)
VH: QVQLVESGGGVVQPGRSLRLSCAASGFTFSSYAIHWVRQAPGKGLEWLAVISFDGRHKYYADSVKGRFTISRDNSKNTVYLQMNSLRVEDTAVYSCARDIRHLIVVVSDMDVWGQGTTVTVSS
VL: DVVMTQSPLSLPVTLGQPASISCRSSQSLVNSDGDTSLNWFQQRPGQSPRRLIYKVSNRDSGVPDRISGSGSGTDFTLKISRVEAEDVGVYYCMQGTHWPPTFGQGTKLEIK
Regarding B14, the binding result in experiment [1] is given as “no binding (tested: 10 µg/ml)”; in experiment [2], “binds”.

B15: nCoV-2 mAb (antibody, V domains shown)
VH: DVQLLESGGGLVQPGGSLRLSCAASGFSFSSYAMTWVRQAPGKGLEWVATMSASGDSTNDADSVKGRFTISRDNSKNTLFLQMNSLRPEDTAVYYCASPLRNYGDLLYWGQGTLVTVSS
VL: DIQMTQSPSTLSASVGDRVTITCRASQNIHRFLAWYQQKPGKAPKLLIYTASSLESGVPSRFSGSGFGTEFTLTISSLQPDDFATYYCQQYNSYSWTFGQGTKVEIK
For the molecule B15, the binding result in experiment [1] is given as “no binding (tested: 10 µg/ml)”; in experiment [2] it was “binds”.
